Test results published in publication PMC9745668 (ACS chemical biology, 2021).
Residue numbers refer to the chain shown, from its start. Numbers in names are those of the source.

T1: IPK from Candidatus methanomethylophilus alvus (CMA) (Methanomethylophilus alvi, UniProt M9SEQ1)
T1 sequence (M9SEQ1 1-259): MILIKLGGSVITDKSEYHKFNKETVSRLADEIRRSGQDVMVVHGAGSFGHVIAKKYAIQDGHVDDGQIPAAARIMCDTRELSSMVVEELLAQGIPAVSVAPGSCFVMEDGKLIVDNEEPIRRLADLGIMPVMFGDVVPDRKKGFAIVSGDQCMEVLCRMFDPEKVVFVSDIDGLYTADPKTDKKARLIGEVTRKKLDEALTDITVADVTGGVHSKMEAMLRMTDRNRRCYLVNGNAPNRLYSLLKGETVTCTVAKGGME

B1: IPK from Candidatus methanomethylophilus alvus (CMA) (Candidatus Methanomethylophilus alvi Mx1201; I74A) (protein)
chain: T1 sequence (M9SEQ1 1-259) with I74A
B2: IPK from Candidatus methanomethylophilus alvus (CMA) (Candidatus Methanomethylophilus alvi Mx1201; I146A) (protein)
chain: T1 sequence (M9SEQ1 1-259) with I146A
B3: IPK from Candidatus methanomethylophilus alvus (CMA) (Candidatus Methanomethylophilus alvi Mx1201; T209S) (protein)
chain: T1 sequence (M9SEQ1 1-259) with T209S
B4: IPK from Candidatus methanomethylophilus alvus (CMA) (Candidatus Methanomethylophilus alvi Mx1201; T209A) (protein)
chain: T1 sequence (M9SEQ1 1-259) with T209A
B5: IPK from Candidatus methanomethylophilus alvus (CMA) (Candidatus Methanomethylophilus alvi Mx1201; I74A/V208A) (protein)
chain: T1 sequence (M9SEQ1 1-259) with I74A, V208A
B6: IPK from Candidatus methanomethylophilus alvus (CMA) (Candidatus Methanomethylophilus alvi Mx1201; V208A) (protein)
chain: T1 sequence (M9SEQ1 1-259) with V208A

How the values were obtained:
[1] = target: T1, IPK from Candidatus methanomethylophilus alvus (CMA); test: X-ray crystal structure, […] Å; type: binding; conditions: alkyl-P site, monomer A, partial occupancy with IP
[2] = substrate: O=P(O)(O)OCc1ccccc1; test: PK-LDH coupled assay, A340; type: biochemical, Methanomethylophilus alvi; conditions: 2 mM ATP, 5 mM MgCl2, 25 mM Tris pH 7.8, 37 °C
[3] = substrate: Cc1ccc(COP(=O)(O)O)cc1; test: PK-LDH coupled assay, A340; type: biochemical, Methanomethylophilus alvi; conditions: 2 mM ATP, 5 mM MgCl2, 25 mM Tris pH 7.8, 37 °C
[4] = substrate: C=C(C)CCOP(=O)(O)O; test: PK-LDH coupled assay, A340; type: biochemical, Methanomethylophilus alvi; conditions: 2 mM ATP, 5 mM MgCl2, 25 mM Tris pH 7.8, 37 °C

| Molecule | X-ray crystal structure, 2.5 Å [1] | Km [2] [µM] | kcat [2] [s⁻¹] | kcat/Km [2] [M⁻¹ s⁻¹] | Km [3] [µM] | kcat [3] [s⁻¹] | kcat/Km [3] [M⁻¹ s⁻¹] | Km [4] [µM] | kcat [4] [s⁻¹] | kcat/Km [4] [M⁻¹ s⁻¹] |
| --- | --- | --- | --- | --- | --- | --- | --- | --- | --- | --- |
| C=C(C)CCOP(=O)(O)OP(=O)(O)O [IPP] | electron density for both pairs of reagents (IP/ATP and IPP/ADP) can be modeled |  |  |  |  |  |  |  |  |  |
| B1 |  | 110 ± 30 | 0.41 ± 0.02 | 4000 | 80 ± 20 | 1.05 ± 0.07 | 13000 | 220 ± 20 | 42 ± 2 | 190000 |
| B2 |  |  |  |  |  |  |  | 160 ± 20 | 68 ± 2 | 430000 |
| B3 |  |  |  |  |  |  |  | 37 ± 8 | 7.2 ± 0.3 | 200000 |
| B4 |  |  |  |  |  |  |  | 50 ± 20 | 0.038 ± 0.002 | 800 |
| B5 |  |  |  |  |  |  |  | 750 ± 80 | 4.9 ± 0.2 | 6500 |
| B6 |  |  |  |  |  |  |  | 75 ± 10 | 5.4 ± 0.1 | 72000 |
